According to IntAct's records for PubMed 31515488:

B1: Alpha-taxilin (Homo sapiens), P40222 (parent)
chain: MKNQDKKNGAAKQSNPKSSPGQPEAGPEGAQERPSQAAPAVEAEGPGSSQAPRKPEGAQARTAQSGALRDVSEELSRQLEDILSTYCVDNNQGGPGEDGAQGEPAEPEDAEKSRTYVARNGEPEPTPVVNGEKEPSKGDPNTEEIRQSDEVGDRDHRRPQEKKKAKGLGKEITLLMQTLNTLSTPEEKLAALCKKYAELLEEHRNSQKQMKLLQKKQSQLVQEKDHLRGEHSKAVLARSKLESLCRELQRHNRSLKEEGVQRAREEEEKRKEVTSHFQVTLNDIQLQMEQHNERNSKLRQENMELAERLKKLIEQYELREEHIDKVFKHKDLQQQLVDAKLQQAQEMLKEAEERHQREKDFLLKEAVESQRMCELMKQQETHLKQQLALYTEKFEEFQNTLSKSSEVFTTFKQEMEKMTKKIKKLEKETTMYRSRWESSNKALLEMAEEKTVRDKELEGLQVKIQRLEKLCRALQTERNDLNKRVQDLSAGGQGSLTDSGPERRPEGPGAQAPSSPRVTEAPCYPGAPSTEASGQTGPQEPTSARA
B2: Breast cancer metastasis-suppressor 1 (Homo sapiens), Q9HCU9 (parent)
chain: MPVQPPSKDTEEMEAEGDSAAEMNGEEEESEEERSGSQTESEEESSEMDDEDYERRRSECVSEMLDLEKQFSELKEKLFRERLSQLRLRLEEVGAERAPEYTEPLGGLQRSLKIRIQVAGIYKGFCLDVIRNKYECELQGAKQHLESEKLLLYDTLQGELQERIQRLEEDRQSLDLSSEWWDDKLHARGSSRSWDSLPPSKRKKAPLVSGPYIVYMLQEIDILEDWTAIKKARAAVSPQKRKSDGP
B3: Tuftelin-interacting protein 11 (Homo sapiens), Q9UBB9 (parent)
chain: MSLSHLYRDGEGRIDDDDDERENFEITDWDLQNEFNPNRQRHWQTKEEATYGVWAERDSDDERPSFGGKRARDYSAPVNFISAGLKKGAAEEAELEDSDDEEKPVKQDDFPKDFGPRKLKTGGNFKPSQKGFAGGTKSFMDFGSWERHTKGIGQKLLQKMGYVPGRGLGKNAQGIINPIEAKQRKGKGAVGAYGSERTTQSMQDFPVVDSEEEAEEEFQKELSQWRKDPSGSKKKPKYSYKTVEELKAKGRISKKLTAPQKELSQVKVIDMTGREQKVYYSYSQISHKHNVPDDGLPLQSQQLPQSGKEAKAPGFALPELEHNLQLLIDLTEQEIIQNDRQLQYERDMVVNLFHELEKMTEVLDHEERVISNLSKVLEMVEECERRMQPDCSNPLTLDECARIFETLQDKYYEEYRMSDRVDLAVAIVYPLMKEYFKEWDPLKDCTYGTEIISKWKSLLENDQLLSHGGQDLSADAFHRLIWEVWMPFVRNIVTQWQPRNCDPMVDFLDSWVHIIPVWILDNILDQLIFPKLQKEVENWNPLTDTVPIHSWIHPWLPLMQARLEPLYSPIRSKLSSALQKWHPSDSSAKLILQPWKDVFTPGSWEAFMVKNIVPKLGMCLGELVINPHQQHMDAFYWVIDWEGMISVSSLVGLLEKHFFPKWLQVLCSWLSNSPNYEEITKWYLGWKSMFSDQVLAHPSVKDKFNEALDIMNRAVSSNVGAYMQPGARENIAYLTHTERRKDFQYEAMQERREAENMAQRGIGVAASSVPMNFKDLIETKAEEHNIVFMPVIGKRHEGKQLYTFGRIVIYIDRGVVFVQGEKTWVPTSLQSLIDMAK
partner: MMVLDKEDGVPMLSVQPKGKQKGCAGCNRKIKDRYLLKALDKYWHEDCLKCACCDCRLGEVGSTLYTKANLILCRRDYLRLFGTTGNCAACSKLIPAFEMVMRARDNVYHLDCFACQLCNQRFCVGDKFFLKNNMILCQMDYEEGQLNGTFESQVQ
B4: STAM-binding protein (Homo sapiens), O95630 (parent)
chain: MSDHGDVSLPPEDRVRALSQLGSAVEVNEDIPPRRYFRSGVEIIRMASIYSEEGNIEHAFILYNKYITLFIEKLPKHRDYKSAVIPEKKDTVKKLKEIAFPKAEELKAELLKRYTKEYTEYNEEKKKEAEELARNMAIQQELEKEKQRVAQQKQQQLEQEQFHAFEEMIRNQELEKERLKIVQEFGKVDPGLGGPLVPDLEKPSLDVFPTLTVSSIQPSDCHTTVRPAKPPVVDRSLKPGALSNSESIPTIDGLRHVVVPGRLCPQFLQLASANTARGVETCGILCGKLMRNEFTITHVLIPKQSAGSDYCNTENEEELFLIQDQQGLITLGWIHTHPTQTAFLSSVDLHTHCSYQMMLPESVAIVCSPKFQETGFFKLTDHGLEEISSCRQKGFHPHSKDPPLFCSCSHVTVVDRAVTITDLR
partner: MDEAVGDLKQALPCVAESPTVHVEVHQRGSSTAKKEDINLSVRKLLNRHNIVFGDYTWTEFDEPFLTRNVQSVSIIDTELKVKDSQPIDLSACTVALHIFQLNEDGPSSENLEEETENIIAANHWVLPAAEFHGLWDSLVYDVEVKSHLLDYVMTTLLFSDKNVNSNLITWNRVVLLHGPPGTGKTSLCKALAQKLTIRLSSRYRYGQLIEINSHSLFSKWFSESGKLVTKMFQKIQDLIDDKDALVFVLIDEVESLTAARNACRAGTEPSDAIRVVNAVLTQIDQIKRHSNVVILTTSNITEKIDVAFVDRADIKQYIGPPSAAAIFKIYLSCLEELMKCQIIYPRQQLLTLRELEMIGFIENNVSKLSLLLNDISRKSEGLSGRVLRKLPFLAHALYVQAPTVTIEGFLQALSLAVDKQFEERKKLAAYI
B5: Protein FAM168A (Homo sapiens), Q92567 (parent)
chain: MNPVYSPVQPGAPYGNPKNMAYTGYPTAYPAAAPAYNPSLYPTNSPSYAPEFQFLHSAYATLLMKQAWPQNSSSCGTEGTFHLPVDTGTENRTYQASSAAFRYTAGTPYKVPPTQSNTAPPPYSPSPNPYQTAMYPIRSAYPQQNLYAQGAYYTQPVYAAQPHVIHHTTVVQPNSIPSAIYPAPVAAPRTNGVAMGMVAGTTMAMSAGTLLTTPQHTAIGAHPVSMPTYRAQGTPAYSYVPPHW

Variants of: B1
Conditions: with cdr2_human CDR2, Q01850
Sequence of cdr2_human CDR2, Q01850 (Q01850 whole entry): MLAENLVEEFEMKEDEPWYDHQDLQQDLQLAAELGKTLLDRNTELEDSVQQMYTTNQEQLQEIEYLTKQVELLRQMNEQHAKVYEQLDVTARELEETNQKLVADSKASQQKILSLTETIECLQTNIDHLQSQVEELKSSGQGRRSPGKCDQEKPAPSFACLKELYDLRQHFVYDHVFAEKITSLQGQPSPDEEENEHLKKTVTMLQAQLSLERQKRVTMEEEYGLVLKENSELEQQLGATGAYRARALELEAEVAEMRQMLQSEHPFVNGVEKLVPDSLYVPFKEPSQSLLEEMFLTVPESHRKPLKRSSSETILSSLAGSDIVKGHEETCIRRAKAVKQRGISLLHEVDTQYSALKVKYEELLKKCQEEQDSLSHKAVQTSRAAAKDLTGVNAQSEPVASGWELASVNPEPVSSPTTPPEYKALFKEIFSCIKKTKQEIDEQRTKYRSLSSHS

Row | effect of a mutation on the interaction | Variant
1 | disrupting interaction strength | R154G

Variants of: B1
Conditions: with tfp11_human TFIP11, Q9UBB9

Row | effect of a mutation on the interaction | Variant
2 | disrupting interaction strength | R154G

Variants of: B1
Conditions: with lipa1_human PPFIA1, Q13136
Sequence of lipa1_human PPFIA1, Q13136 (Q13136 whole entry): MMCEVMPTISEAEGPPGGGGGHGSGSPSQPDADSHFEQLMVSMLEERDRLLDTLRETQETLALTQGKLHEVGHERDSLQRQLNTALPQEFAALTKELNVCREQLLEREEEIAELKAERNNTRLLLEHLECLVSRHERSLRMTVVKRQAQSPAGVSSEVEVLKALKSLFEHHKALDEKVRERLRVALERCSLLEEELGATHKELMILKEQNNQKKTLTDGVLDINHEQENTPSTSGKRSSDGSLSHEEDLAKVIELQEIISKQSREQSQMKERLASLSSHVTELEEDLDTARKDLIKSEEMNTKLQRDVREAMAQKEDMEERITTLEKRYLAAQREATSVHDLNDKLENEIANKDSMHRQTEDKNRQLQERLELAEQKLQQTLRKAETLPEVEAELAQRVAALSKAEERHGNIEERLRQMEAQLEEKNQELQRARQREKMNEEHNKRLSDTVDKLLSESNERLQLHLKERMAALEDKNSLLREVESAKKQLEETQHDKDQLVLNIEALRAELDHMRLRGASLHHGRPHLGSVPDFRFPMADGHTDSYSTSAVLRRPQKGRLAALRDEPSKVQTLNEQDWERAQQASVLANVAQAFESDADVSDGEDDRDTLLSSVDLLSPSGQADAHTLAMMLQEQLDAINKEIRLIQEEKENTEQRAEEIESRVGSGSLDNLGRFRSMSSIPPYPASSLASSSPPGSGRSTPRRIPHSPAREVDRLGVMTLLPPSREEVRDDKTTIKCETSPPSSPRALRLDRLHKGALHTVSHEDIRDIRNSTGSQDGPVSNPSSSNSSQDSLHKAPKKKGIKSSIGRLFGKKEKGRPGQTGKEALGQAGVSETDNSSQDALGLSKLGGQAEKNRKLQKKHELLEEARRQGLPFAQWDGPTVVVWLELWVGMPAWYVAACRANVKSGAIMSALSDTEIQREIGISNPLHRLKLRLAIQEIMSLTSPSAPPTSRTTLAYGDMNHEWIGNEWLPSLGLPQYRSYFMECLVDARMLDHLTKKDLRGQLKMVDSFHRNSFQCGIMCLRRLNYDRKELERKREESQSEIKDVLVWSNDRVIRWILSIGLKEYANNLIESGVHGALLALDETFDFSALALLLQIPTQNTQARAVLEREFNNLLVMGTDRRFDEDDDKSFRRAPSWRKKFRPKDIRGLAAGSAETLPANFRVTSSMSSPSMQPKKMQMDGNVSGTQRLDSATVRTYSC

Row | effect of a mutation on the interaction | Variant
3 | with no effect | R154G

Variants of: B1
Conditions: with ndc80_human NDC80, O14777
Sequence of ndc80_human NDC80, O14777 (O14777 whole entry): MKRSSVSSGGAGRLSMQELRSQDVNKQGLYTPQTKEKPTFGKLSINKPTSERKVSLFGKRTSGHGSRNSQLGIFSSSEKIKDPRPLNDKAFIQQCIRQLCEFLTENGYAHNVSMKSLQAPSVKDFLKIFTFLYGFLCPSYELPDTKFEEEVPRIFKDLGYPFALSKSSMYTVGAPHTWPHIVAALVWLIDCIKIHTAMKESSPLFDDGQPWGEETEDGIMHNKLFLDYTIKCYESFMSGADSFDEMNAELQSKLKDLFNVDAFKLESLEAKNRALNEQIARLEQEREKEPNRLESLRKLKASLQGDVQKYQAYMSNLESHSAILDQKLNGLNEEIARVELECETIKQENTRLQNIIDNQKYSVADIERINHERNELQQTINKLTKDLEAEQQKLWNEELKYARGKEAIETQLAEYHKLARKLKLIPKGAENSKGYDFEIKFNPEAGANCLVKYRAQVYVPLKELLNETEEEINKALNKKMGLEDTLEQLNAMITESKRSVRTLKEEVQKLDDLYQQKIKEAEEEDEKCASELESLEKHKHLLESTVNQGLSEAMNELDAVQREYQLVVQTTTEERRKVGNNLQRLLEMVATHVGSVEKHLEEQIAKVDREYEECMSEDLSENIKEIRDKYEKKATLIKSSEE

Row | effect of a mutation on the interaction | Variant
4 | disrupting interaction strength | R154G

Variants of: B2
Conditions: with cep70_human CEP70, Q8NHQ1
Sequence of cep70_human CEP70, Q8NHQ1 (Q8NHQ1 whole entry): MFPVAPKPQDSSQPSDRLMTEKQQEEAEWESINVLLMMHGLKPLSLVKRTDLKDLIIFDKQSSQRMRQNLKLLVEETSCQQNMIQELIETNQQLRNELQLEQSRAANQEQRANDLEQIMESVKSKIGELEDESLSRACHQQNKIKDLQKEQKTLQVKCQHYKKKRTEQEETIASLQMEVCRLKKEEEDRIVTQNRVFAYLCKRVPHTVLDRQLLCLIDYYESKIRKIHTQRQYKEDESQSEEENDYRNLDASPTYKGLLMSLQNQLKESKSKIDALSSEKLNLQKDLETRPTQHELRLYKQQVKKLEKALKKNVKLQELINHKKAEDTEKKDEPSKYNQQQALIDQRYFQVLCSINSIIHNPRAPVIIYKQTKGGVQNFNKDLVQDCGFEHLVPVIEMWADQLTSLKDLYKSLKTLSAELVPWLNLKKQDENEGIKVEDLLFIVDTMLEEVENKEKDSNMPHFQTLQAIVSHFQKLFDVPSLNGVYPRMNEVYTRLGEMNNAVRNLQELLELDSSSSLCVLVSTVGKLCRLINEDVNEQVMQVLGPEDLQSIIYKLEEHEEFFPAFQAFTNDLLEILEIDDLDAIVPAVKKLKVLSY

Row | effect of a mutation on the interaction | Variant
5 | with no effect | S7G

Variants of: B3
Conditions: with rbtn1_human LMO1, P25800

Row | effect of a mutation on the interaction | Variant
6 | with no effect | R8Q
7 | with no effect | S688L

Variants of: B4
Conditions: with pch2_human TRIP13, Q15645

Row | effect of a mutation on the interaction | Variant
8 | disrupting interaction strength | Q155H
9 | with no effect | R255H

Variants of: B5
Conditions: with ru1c_human SNRPC

Row | effect of a mutation on the interaction | Variant
10 | with no effect | P122R

Variants of: B5
Conditions: with ubs3b_human UBASH3B

Row | effect of a mutation on the interaction | Variant
11 | disrupting interaction strength | P122R

Variants of: B5
Conditions: with ub2v1_human UBE2V1, Q13404
Sequence of ub2v1_human UBE2V1, Q13404 (Q13404 whole entry): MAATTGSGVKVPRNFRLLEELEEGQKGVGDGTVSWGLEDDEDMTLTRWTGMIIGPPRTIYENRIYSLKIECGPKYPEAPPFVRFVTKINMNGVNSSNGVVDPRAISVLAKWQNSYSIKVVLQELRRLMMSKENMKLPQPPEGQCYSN

Row | effect of a mutation on the interaction | Variant
12 | disrupting interaction strength | P122R
